Test results as given in the supplement of paper PMC9732359.
± gives the uncertainty stated by the source.

Experiment: protein stability index of a GFP-peptide fusion (yeast GPS) (PSI 1-4); higher = more stable; sorted into four equal gates, so the index is relative within each strain
In short: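 Tiled 17-residue peptides from yeast proteins were fused downstream of GFP on a plasmid that also expresses Cherry, and the pooled library was carried in yeast. Mid-log cultures grown in leucine-free medium were sorted into four equal gates by GFP/Cherry fluorescence ratio. Plasmids from each gate were PCR-amplified and Illumina-sequenced, and reads were assigned to strains by barcodes. Each peptide's protein stability index is the sum, over gates, of the gate's read frequency multiplied by its gate number.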

Row | Sequence | protein stability index (doa10∆) | protein stability index (pdr5∆) | protein stability index (san1∆) | protein stability index (ubr1∆)
1 | FETFLVDVNNKFIALCE [SIN4] | 2.94 ± 0.062 | 3.05 ± 0.049 | 3.09 ± 0.045 | 3.1 ± 0.059
2 | GRQFCNRLSRIHLYMLT [YLR018C/POM34] | 1.68 ± 0.051 | 1.87 ± 0.05 | 1.69 ± 0.1 | 1.8 ± 0.04
3 | RQQYYSGVQVGGVGSMG [SNF6] | 2.08 ± 0.068 | 2.44 ± 0.11 | 2.19 ± 0.094 | 2.24 ± 0.056
4 | GVKDCQEGLITTTMLQL [SSN2] | 2.46 ± 0.083 | 2.5 ± 0.1 | 2.74 ± 0.079 | 2.6 ± 0.052
5 | DSSMTTVQENELLKSSL [AAR2] | 2.79 ± 0.12 | 3.32 ± 0.1 | 3.12 ± 0.095 | 2.94 ± 0.13
6 | VEQTAEVTIEDALKVVL [RPS12] | 3.34 ± 0.079 | 3.36 ± 0.078 | 3.19 ± 0.049 | 3.21 ± 0.045
7 | KAISVGANTSAAQTLLQ [PRE9] | 2.74 ± 0.054 | 2.92 ± 0.052 | 2.77 ± 0.053 | 2.92 ± 0.046
8 | KAELEKQKSWVPSYIHV [YIL149C/MLP2] | 2.09 ± 0.052 | 2.33 ± 0.041 | 2.15 ± 0.077 | 2.31 ± 0.035
9 | FIDHHAAIRQPTRYVLI [POP1] | 1.72 ± 0.066 | 2.08 ± 0.073 | 1.77 ± 0.098 | 1.4 ± 0.047
10 | LAKSGSTEETTANTGTI [TAF14] | 2.61 ± 0.08 | 2.27 ± 0.089 | 2.19 ± 0.14 | 2.39 ± 0.091
11 | NGRLNKCGVISPRFNVK [RPS22A] | 2.58 ± 0.29 | 2.85 ± 0.23 | 2.88 ± 0.2 | 3.22 ± 0.11
12 | NTLLQQQNYSKVLLPSI [SWI1] | 2.07 ± 0.077 | 2.9 ± 0.11 | 2.79 ± 0.076 | 3.09 ± 0.095
13 | TKAQQKTAEQIAAERAA [RPL7B] | 2.81 ± 0.17 | – | 3.07 ± 0.13 | –
14 | EYFGGESPVDVQSQVDS [FAS1] | 3.01 ± 0.14 | 3.38 ± 0.1 | 3.19 ± 0.11 | 3.07 ± 0.092
15 | KEAAAVAEGKSKQDASP [RPL8A] | 3.22 ± 0.085 | 3.29 ± 0.056 | 3.15 ± 0.044 | 3.04 ± 0.054
16 | VTYALSGYVRSRGESDD [RPS21A] | 3.3 ± 0.22 | 3.07 ± 0.29 | 3.2 ± 0.16 | 3.3 ± 0.19
17 | EINLSKIFQTTPEKDLF [YCS4] | 2.72 ± 0.11 | 2.29 ± 0.075 | 1.5 ± 0.091 | 2.7 ± 0.055
18 | STLKSFFTNPNKKRPSS [YOR098C/NUP1] | 2.79 ± 0.052 | 3.06 ± 0.049 | 3.08 ± 0.043 | 2.91 ± 0.045
19 | LEVANDLQLLYVESDED [IRR1] | 1.43 ± 0.13 | 1.21 ± 0.091 | 1.42 ± 0.2 | 1.13 ± 0.046
20 | HVQFRLGNVDAFQLADG [PRP8] | 3.28 ± 0.11 | 2.79 ± 0.084 | 2.47 ± 0.11 | 1.61 ± 0.046
21 | VLEYLAAEILELAGNAA [HTA1] | 2.85 ± 0.1 | 2.44 ± 0.1 | 2.54 ± 0.081 | 2.84 ± 0.1
22 | DMLLHKYYIVSSSKSMI [SRB8] | 1.26 ± 0.074 | 1.47 ± 0.062 | 1.7 ± 0.14 | 1.61 ± 0.079
23 | CQILDGELDVLQIESVT [PRP8] | 2.56 ± 0.05 | 2.78 ± 0.062 | 2.55 ± 0.065 | 2.86 ± 0.059
24 | RNRDIALFQPPNFDWDL [ROX3] | 3.12 ± 0.096 | 3.33 ± 0.12 | 3.17 ± 0.11 | 2.98 ± 0.11
25 | LGNVDAFQLADGIHYIL [PRP8] | 2.74 ± 0.15 | 2.65 ± 0.083 | 2.42 ± 0.1 | 1.91 ± 0.042
26 | EEQEKINSAPDFTQEDE [ISW2] | 3.14 ± 0.11 | 3.56 ± 0.088 | 3.39 ± 0.081 | 3.55 ± 0.067
27 | ITDKGTVDGRLYQLFKT [YJL039C/NUP192] | 3.19 ± 0.11 | 3.46 ± 0.097 | 3.3 ± 0.069 | 3.46 ± 0.094

Row | Sequence | protein stability index (doa10∆) | protein stability index (pdr5∆) | protein stability index (san1∆) | protein stability index (ubr1∆)
28 | NGNLEEEFAYVDPARRQ [MED6] | 3.62 ± 0.21 | 3.44 ± 0.12 | 3.71 ± 0.1 | 2.74 ± 0.085
29 | TGLNGSGKSNILDAICF [SMC2] | 3.4 ± 0.12 | 2.98 ± 0.093 | 3.28 ± 0.063 | 3.31 ± 0.054
30 | KHLEDNTLLISGPFKVN [RPL6A] | 1.83 ± 0.085 | 2.01 ± 0.072 | 1.63 ± 0.13 | 2.14 ± 0.048
31 | ELIALNLSEARLVIKEA [RPB4] | 3.01 ± 0.16 | – | – | 2.73 ± 0.18
32 | EYKSLFVVGVDNVSSQQ [RPP0] | 3.22 ± 0.055 | 2.79 ± 0.067 | 3.29 ± 0.091 | 3.24 ± 0.053
33 | HLRKLLDGELDFDDFLK [RET1] | 3.04 ± 0.16 | 2.95 ± 0.1 | 2.81 ± 0.12 | 2.99 ± 0.092
34 | ATLQSNEPTQKDEEETE [DSN1] | 3.21 ± 0.16 | 3.18 ± 0.12 | 3.17 ± 0.1 | 2.79 ± 0.1
35 | ADTLDPALLRPGRLDRK [RPT3] | 3.57 ± 0.17 | 3.56 ± 0.16 | 3.26 ± 0.23 | 3.3 ± 0.2
36 | FSEEKAEEFDFNVPVVS [YAR002W/NUP60] | 2.48 ± 0.18 | 1.34 ± 0.16 | 1.3 ± 0.13 | 1.15 ± 0.12
37 | RRRDGVFLYFEDNAGVI [RPL23A] | 2.68 ± 0.13 | 2.83 ± 0.069 | 2.37 ± 0.11 | 2.9 ± 0.056
38 | ELTDNMSDFVPIDAGLN [MCD1] | 3.12 ± 0.11 | 2.99 ± 0.1 | 2.74 ± 0.081 | 3.21 ± 0.12
39 | AKNIISNVLDGNKNQFE [LRP1] | 2.46 ± 0.056 | 2.77 ± 0.049 | 2.92 ± 0.045 | 3.23 ± 0.049
40 | PTPAASAPAPAAAAPAP [FAS2] | 2.95 ± 0.1 | 3.05 ± 0.073 | 2.72 ± 0.074 | 3.1 ± 0.079
41 | GQCRPISKTVRFNVVKV [RPS11A] | 3.31 ± 0.12 | 2.93 ± 0.22 | 2.76 ± 0.097 | 2.77 ± 0.1
42 | RAEALNISGEFFRNKLK [RPL16B] | – | 2.4 ± 0.25 | – | 2.9 ± 0.13
43 | HLIFSNARIYNTEGSVV [SNF2] | 3 ± 0.12 | 3.39 ± 0.18 | 2.49 ± 0.19 | 3.18 ± 0.085
44 | LKRSTELLETVSLTKRK [YIL149C/MLP2] | 1.66 ± 0.056 | 2.06 ± 0.045 | 2.09 ± 0.079 | 1.6 ± 0.027
45 | IFCIDLEVFHHFFKWIE [SRB8] | 1.25 ± 0.092 | 1.64 ± 0.16 | 1.38 ± 0.14 | –
46 | ITKFALFAESHDVLQKL [YML103C/NUP188] | 2.34 ± 0.1 | 1.78 ± 0.2 | 2.02 ± 0.13 | 2.45 ± 0.075
47 | MLCTADTPEGEACGLVK [RET1] | 1.47 ± 0.1 | 1.77 ± 0.14 | – | –
48 | VVVSGKLRAARAKAMKF [RPS3] | – | – | – | 3.28 ± 0.29
49 | MDKPLNFRILKSFTNDK [SRB5] | 3.15 ± 0.06 | 3.11 ± 0.059 | 3.14 ± 0.042 | 3.16 ± 0.036
50 | ILVLALEDLKDVYASKV [PRP8] | 2.29 ± 0.064 | 1.8 ± 0.057 | 2.85 ± 0.081 | 2.21 ± 0.066
51 | LLEGLNEKIEKRSDLTG [UBP6] | 2.89 ± 0.092 | 3.11 ± 0.063 | 3.18 ± 0.081 | 3.32 ± 0.098
52 | KFFTQSNLEKLPKYKEK [MED7] | 2.43 ± 0.046 | 2.7 ± 0.048 | 2.82 ± 0.053 | 2.62 ± 0.04
53 | KKYLKKNQLRDWIRFVS [RPL22A] | 1.8 ± 0.06 | 1.68 ± 0.062 | 1.2 ± 0.14 | 1.12 ± 0.09
